T1: RlpA-Δ32·MltF2 complex (MST) (P. aeruginosa PAO1, UniProt Q9X6V6;Q9HZY1, amine reactive RED-NHS dye)
T1 sequence 1: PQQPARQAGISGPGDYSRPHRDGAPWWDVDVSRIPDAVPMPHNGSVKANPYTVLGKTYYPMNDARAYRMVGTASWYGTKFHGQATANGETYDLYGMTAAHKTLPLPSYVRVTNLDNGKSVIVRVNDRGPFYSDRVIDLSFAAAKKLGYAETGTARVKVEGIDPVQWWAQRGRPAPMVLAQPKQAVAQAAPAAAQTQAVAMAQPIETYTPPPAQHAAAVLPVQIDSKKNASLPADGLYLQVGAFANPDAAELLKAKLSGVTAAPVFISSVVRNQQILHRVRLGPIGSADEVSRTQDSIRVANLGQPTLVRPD
T1 sequence 2: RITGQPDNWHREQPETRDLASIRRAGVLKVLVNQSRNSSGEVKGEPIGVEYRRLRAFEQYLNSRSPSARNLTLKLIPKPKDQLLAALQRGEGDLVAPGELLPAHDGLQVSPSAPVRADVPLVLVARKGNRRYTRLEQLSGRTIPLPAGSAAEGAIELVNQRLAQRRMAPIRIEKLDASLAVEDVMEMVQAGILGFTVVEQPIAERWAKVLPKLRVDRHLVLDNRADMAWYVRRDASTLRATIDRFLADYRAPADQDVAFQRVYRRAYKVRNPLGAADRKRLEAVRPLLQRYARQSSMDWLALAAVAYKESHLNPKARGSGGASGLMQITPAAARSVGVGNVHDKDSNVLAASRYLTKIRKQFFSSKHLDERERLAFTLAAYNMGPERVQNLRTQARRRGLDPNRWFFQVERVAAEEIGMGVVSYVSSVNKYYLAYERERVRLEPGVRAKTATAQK

B1: MltD (enzyme, P. aeruginosa PAO1, UniProt Q9I2T2 1-534, looked up)
chain: QGSGQIKGEAQAKAARPGARAVDVQFNPSWLHTQPGQNAAYNDIWDRMRDGFQLQDAISTNPRIERQRLWFLSNQSFLEQSSARGSLYMHYVVERLEERNMPLELALLPVIESAYNPFALSRSNAAGLWQFIPATGQHFNLRQTNFYDGRRDITASTNAALTYLERLHDMFNGDWMLALAAYNAGEGTVSRAIERNEKLGLPTDYWNLPLPQETQDYVPKLLALSQIVMAPDSYGISLNPINNEPYFQAVRVKRGIDLSSVAALANLDEDELYQLNPAYKRRVTMDGPQQLLVPMEKAAFLTASLDTLKPKEVTAWQQYRVRSGDSLHSIANRYRITVAELKSANRLSSNHLRKGQQLSIPGQIAGGAVKPVYQQLARQASTPARTRSYKVKNGDSLWQIARNNGVDVNDLKRWNGLDKHALKVGQTLKLQGGTQALAARKGNAAGKRDSATYYKVKQGDSMYLIAKRFNVEMKHLQRWNPRSKQALKPGQTLTLYLDTASR
B2: PBP4 (enzyme, P. aeruginosa PAO1, UniProt Q9HZG1 1-476, looked up)
chain: QVNATLPANVQKALQTNKLTGNDLSLVLIPLDGPGNPTYYNADVSVNPASTMKLFTTYAALEMLGPTYQWKTEFYTDGQLKNGVLNGNLYLKGGGDPKLNMEKLWLLMRDLRANGVTKVTGDLVLDRSYFNIPQLPVFNDDGGDDTKPFLVGPDSLLVNLKSVRMVVRTDGNKVNVQMDPPLANVRIDNQVKMTAPATCPAWPKLRFSPVTQFDGTTLLATGQIPQGCSAQTYMSLLDHPGYTAGAVRGIWQELGGSILGKDRQGSVPRNATLIAKAFSPDLVEIIRDINKYSNNTMARQLFLSIGAQFRNSADGDDAQAAQRVVRQWLARKGITAPRLVMENGSGLSRQERVSAREMAAMLQAAWHSPYAAEYISSLPLAGLDGTMRKRLRRTALVGEAHVKTGTLNTVRALAGFSRDASGHNWVVVAILNSPRPWGASAILDQVLLSLHARK
B3: MltB (enzyme, P. aeruginosa PAO1, UniProt Q9HVX3 1-367, looked up)
chain: SSEPTPPPKPAAKPQARTVISPRPVRQSVQPILPLRGDYANNPAAQHFIDRMVSQHGFNRQQLHDLFAQTQRLDWVIRLMDRQAPTYTPPSGPNGAWLRYRKKFVTPGNVQNGVLFWDQYETDLQRASRVYGVPPEIIVGIIGVETRWGRVMGKTRIIDALSTLSFSYPRRAEFFSGELEQFLLQARKEGTDPLALRGSYAGAMGYGQFMPSSFTKYAVDFDGDGHIDLWNPRDAIGSVANYFKQHGWVSGDRVAVPASGRAPSLEDGFKTLYPLDVLASAGLRPQGPLGGHRQASLLRLDMGRNYQYWYGLPNFYVITRYNHSTHYAMAVWELGKEVDRVRHRSVVRQD
B4: TypA (natural protein, P. aeruginosa PAO1, UniProt Q9HU67 1-605, looked up)
chain: MIENLRNIAIIAHVDHGKTTLVDKLLKLSGTLDRKEAESERVMDSNDQEKERGITILAKNTAIKWNGYNINIVDTPGHADFGGEVERVMSMVDSVLLVVDAQDGPMPQTRFVTQKAFKAGLRPIVVVNKIDRPGARPDWVIDQIFDLFDNLGATDEQLDFPIVYASALNGIAGLDHEKMDDNMDALFQAIIDHVPAPVVDTEGPFQMQISQLDYNSFLGVIGIGRITRGKVKSNTPVVAISDDGSKRNGRILKIMGHHGLQRVEVAEAEAGDIVCVSGMEELFISDTLCDPQNVEALPPLTVDQPTVSMTFQVNDSPFAGREGKFVTSRNIKERLEKELLHNVALRVEPGDSPEKFKVSGRGELHLSVLIETMRREGFELAVGRPEVVIIEKDGEKQEPYENVTIDIEEQHQGSVMEQMGLRKGDLSNMIPDGKGRVRLEYTIPARGLIGFRNNFLTLTSGTGILTSTFSHYGPIKAGEVSNRQNGVLVSMATGTALTYSLETLQSRGKLFLGPGDEIYEGQLAGINSRDNDLVINPTKGKKLDNMRASGKDEVIALVPPIRFTLEQALEFIADDELVEVTPKSIRLRKKMLNENDRKRYERSKV
B5: MltF (enzyme, P. aeruginosa PAO1, UniProt Q9HXN1 33-490, looked up)
chain: PTALERVQKEGVLRVITRNSPATYFQDRNGETGFEYELAKRFAERLGVELKIETADNLDDLYAQLSREGGPALAAAGLTPGREDDASVRYSHTYLDVTPQIIYRNGQQRPTRPEDLVGKRIMVLKGSSHAEQLAELKKQYPELKYEESDAVEVVDLLRMVDVGDIDLTLVDSNELAMNQVYFPNVRVAFDFGEARGLAWALPGGDDDSLMNEVNAFLDQAKKEGLLQRLKDRYYGHVDVLGYVGAYTFAQHLQQRLPRYESHFKQSGKQLDTDWRLLAAIGYQESLWQPGATSKTGVRGLMMLTNRTAQAMGVSNRLDPKQSIQGGSKYFVQIRSELPESIKEPDRSWFALAAYNIGGAHLEDARKMAEKEGLNPNKWLDVKKMLPRLAQKQWYAKTRYGYARGGETVHFVQNVRRYYDILTWVTQPQMEGSQIAESGLHLPGVNKTRPEEDSGDEKL
B6: AlgO (natural protein)
chain: STAVSVGSAQNSWDSLQPDREQVIASLNVVELLKRHHYNKPPLNDERSAKIYDSYLKMLDPARMYFTAGDIAEFDRWRNRFDDFLKSGDLDPGFVIYKRHLDRLKGRLDYALAMLDKGVDKIDFSVDESLLIDREKAPWAKDTAELDDLWRKKVKDEVLRLKITGKDDKAIQEQLTKRYKNQLSRLKQTRSEDIFQAYINAFAQSYDPHTQYLSPDNAENFDINMSLSLEGIGAVLQSDNDYVKVVRLVPAGPAAKSKQIATSDKIIGVAQGKGEMVDVVGWRLDEVVKLIRGPKGSQVRLEVIPASNAPNDQTSKIVAITREAVKLEDQAAKKSIIKVDHEGRSYKLGVIDLPAFYLDFKAYRAGDPNYKSTTRDVKKLVAELQKDKVDGIVLDLRNNGGGSLQEATELTGLFIDQGPTVLVRNSDGRVDVLNDDEGKAFYTGPLAVLVNRLSASASEIFAGAMQDYHRALILGGQTFGKGTVQTIQPLNHGELKLTLAKFYRVSGQSTQHQGVIPDISYPSIVDDKEIGESALPDSMPWDTIRPVVKDEANPFKPFLAQLKAQHDARTENNADFVYARERLALAQELMKEKTVSLNEAKRRAQQTSIENRQLAMENALRKSKGQEPLKELKREDENALPEEDDKTKPQDDAYLTESGHILLDYLNLNSAVAKH
notes: source: E. coli, purified (Ni-NTA or Strep-Tactin)
B7: MltA (enzyme, P. aeruginosa PAO1, UniProt Q9I4B6 1-385, looked up)
chain: DDGKKEPPPKPAEVTTYNSVPWDALPATSDADLLAGFNAWRSACARLAKDPVWGEPCASATTVAADPTAVRAFLQERMQVYSLRSSSNGDQGLITGYYEPVYHGSLSQGEKTPVPVYGVPDDLVVVALESVYPELKGKRLRGRLEGRVLKPYDDAATIRDNGSSAPVLAWLGDPMDLQFLQIQGSGRIQLEDGRQLRIGYGDQNGHPYKPVGRWLVEQGLVPKEEISMKRIRDWAEANPQRVSELLASNPSFVFFSLRPDSDEGPRGSLNVPLTDGYSVAIDRKVIPLGSLMWLSTTRPDDGSAVVRPVAAQDTGGAIVGEVRADLFWGTGDAAGELAGHMKQPGRLWLLWPKGAPLPAS
B8: SltB2 (enzyme, P. aeruginosa PAO1, UniProt Q9I4G6 1-398, looked up)
chain: QPDASSFPSCLAGLQKKAQAQGISADSYERFTSGLQADLSVLDLLDAQPEFTTPLWDYLAGLVDEQRVSDGKAMLAQHDKLLDQVAARYGVDKYTVVAVWGVESDYGRIFGKRPLLTSLSTLSCYGRRQSFFQGEFLATLKLLQAGDIRDAGITGSWAGAFGHTQFMPSTYARIAVDFDGDGRRDLVGSVPDALGSTANYLKKAGWRTGQPWGYEVKVPADFPASLAGRGKRQPLSAWVARGVRRVDGQPLPGGDEKAAILLPAGAQGPAFLVYRNYDAIYSYNAAESYALAIALLSDRLRGGSGLVASWPTDDPGISRLERKQLQKALLARGYDIGEADGLIGTSTRKAIQAEQKRLGLTPADGRAGRKILEALKGAQP

Target: T1, RlpA-Δ32·MltF2 complex (MST)
Experiment: MST
Conditions: both partners purified

| Binder | Kd [nM] |
| --- | --- |
| B1 | 220 |
| B2 | 240 |
| B3 | 110 |
| B4 | 1800 |
| B5 | 260 |
| B6 | 16000 |
| B7 | 35 |
| B8 | 150 |

Source: PMC9712689 (Communications Biology, 2022)
